Columns and labels:
[1] = target: T1, human IL-6 (as added in the B9 and 7TD1 bioassays) (human, UniProt P05231 30-212); test: cell-based or functional assay
[2] = target: T2, bacterially produced human IL-6 (human, UniProt P05231 30-212); test: SPR; purified Fab over biotinylated IL-6 on streptavidin chip
T2 construct: also called bactIL-6; prokaryotic IL-6
Procedure: From the washing phase the off-rate (kd) was determined, while from the injection phase the on-rate (ka) was calculated using the concentration and off-rate as parameters.

cynomolgus monkey IL-6 = target: T3, cynomolgus monkey IL-6 (cynomolgus monkey, UniProt P79341 28-212, limits assumed); test: SPR (Biacore), periplasmic Fab
T3 construct: Immobilised on the Biacore chip

[3] = target: T4, bacterially produced human IL-6 (human, UniProt P05231 30-212); test: SPR (Biacore), periplasmic Fab
T4 construct: Immobilised on the Biacore chip; also called BACT IL-6 (2-1); bactIL-6

[4] = target: T5, eukaryotically produced human IL-6 (human, UniProt P05231 30-212); test: SPR (Biacore), periplasmic Fab
T5 construct: Immobilised on the Biacore chip; also called Euk IL-6; EUK IL-6 (3-1)

[5] = target: T1, human IL-6 (as added in the B9 and 7TD1 …); test: cell-based or functional assay; remark: listed apart in the source

Ka (cynomolgus monkey IL-6) [M⁻¹]	Kd (cynomolgus monkey IL-6) [pM]	fold improvement of KD over 28A6 (parental) (cynomolgus monkey IL-6) [fold]	fold improvement of ka over 28A6 (parental) (cynomolgus monkey IL-6) [fold]	fold improvement of kd over 28A6 (parental) (cynomolgus monkey IL-6) [fold]	koff (cynomolgus monkey IL-6) [s⁻¹]	kon (cynomolgus monkey IL-6) [M⁻¹ s⁻¹]	Ka [3] [M⁻¹]	Kd [3] [pM]	fold improvement of KD over 28A6 (parental) [3] [fold]	fold improvement of ka over 28A6 (parental) [3] [fold]	fold improvement of kd over 28A6 (parental) [3] [fold]	koff [3] [s⁻¹]	kon [3] [M⁻¹ s⁻¹]	Ka [4] [M⁻¹]	Kd [4] [pM]	fold improvement of KD over 28A6 (parental) [4] [fold]	fold improvement of ka over 28A6 (parental) [4] [fold]	Binder	IC50, 7TD1 proliferation assay, exp 29.06 [1] [pM]	Rel. Potency, 7TD1, exp 29.06 [1]	other results
–	–	–	–	–	–	–	–	–	–	–	–	–	–	–	–	–	–	129F2 (germlined variant of 68F2), full-length IgG1 (antibody, V domains shown) VH: EVQLQESGPGLVKPSQTLSLTCTVSGGSITSRYYAWSWIRQPPGKGLEWIGVIDYDGDTYYSPSLKSRVTISWDTSKNQFSLKLSSVTAEDTAVYYCARDPDVVTGFHYDYWGQGTMVTVSS VL: QSALTQPPSVSGTPGQTVTISCAGANNDIGTYAYVSWYQQLPGTAPKLMIYKVTTRASGIPDRFSGSKSGNTASLTISGLQSEDEADYYCASYRNFNNAVFGGGTKLTVL	0.517	1.08	IC50, 7TD1 proliferation assay, exp 22.06 [1]: 0.703 pM
–	–	–	–	–	–	–	–	–	–	–	–	–	–	–	–	–	–	126A3 (germlined variant of 68F2), full-length IgG1 (antibody, V domains shown) VH: EVQLQESGPGLVKPSQTLSLTCTVSGGSITTRYYAWSWIRQPPGKGLEWIGVIDYDGDTYYSPSLKSRVTISVDTSKNQFSLKLSSVTAADTAVYYCARDPDVVTGFHYDYWGQGTMVTVSS VL: QSALTQPPSVSGAPGQTVTISCAGANNDIGTYAYVSWYQQLPGTAPKLLIYKVTTRASGIPSRFSGSKSGNTASLTITGLQSEDEADYYCASYRNFNNAVFGRGTKLTVL	0.564	0.99	IC50, 7TD1 proliferation assay, exp 7.07 [1]: 0.63 pM; Rel. Potency, 7TD1, exp 7.07 [1]: 2.16
–	–	–	–	–	–	–	–	–	–	–	–	–	–	–	–	–	–	127E2 (germlined variant of 68F2), full-length IgG1 (antibody, V domains shown) VH: EVQLQESGPGLVKPSQTLSLTCTVSGGSITTRYYAWSWIRQPPGKGLEWIGVIDYDGDTYYSPSLKSRVTISVDTSKNQFSLQLSSVTAEDTAVYYCARDPDVVTGFHYDYWGQGTQVTVSS VL: QSALTQPPSVSGSPGQTVTISCAGANNDIGTYAYVSWYQQPPGTAPKLLIYKVTTRASGVPDRFSGSKSGNTASLTISGLQAEDEADYYCASYRNFNNAVFGGGTHLTVL	–	–	IC50, 7TD1 proliferation assay, exp 22.06 (batch 24.06) [1]: 1.38 pM; IC50, 7TD1 proliferation assay, exp 29.06 (batch 17.06) [1]: 1.51 pM; IC50, 7TD1 proliferation assay, exp 29.06 (batch 24.06) [1]: 1.25 pM; Rel. Potency, 7TD1, exp 29.06 (batch 24.06) [1]: 0.45
–	–	–	–	–	–	–	–	–	–	–	–	–	–	–	–	–	–	129E11 (germlined variant of 68F2), full-length IgG1 (antibody, V domains shown) VH: EVQLQESGPGLVKPSQTLSLTCTVSGGSITSRYYAWSWIRQPPGKGLEWMGVIDYDGDTYYSPSLKSRVTISVDTSKNQFSLKLSSVTAEDTAVYYCARDPDVVTGFHYDYWGQGTLVTVSS VL: QSALTQPPLVSGSPGQTVTISCAGANNDIGTYAYVSWYQQLPGTAPKLLIYKVTTRASGVPDRFSGSKSGNTASLTISGLQSEDEADYYCASYRNFNNAVFGTGTKLTVL	0.857	0.65	IC50, 7TD1 proliferation assay, exp 7.07 [1]: 1.55 pM; Rel. Potency, 7TD1, exp 7.07 [1]: 0.88
–	–	–	–	–	–	–	–	–	–	–	–	–	–	–	–	–	–	128G3 (germlined variant of 68F2), full-length IgG1 (antibody, V domains shown) VH: EVQLQESGPGLVKPSQTLSLTCTVSGGSITTRYYAWSWIRQPPGKGLEWIGVIDYDGDTYYSPSLKSRTTISVDTSKNQFSLKLSSVTPEDTAVYYCARDPDVVTGFHYDYWGQGTMVTVSS VL: QSALTQPPSVSGAPGQTVTISCAGANNDIGTYAYVSWYQQLPGTAPKLLIYKVTTRASGVPDRFSGSKSGNTASLAISGLQAEDEADYYCASYRNFNNAVFGGGTHLTVL	–	–	IC50, 7TD1 proliferation assay, exp 22.06 (batch 17.06) [1]: 1.34 pM; IC50, 7TD1 proliferation assay, exp 29.06 (batch 17.06) [1]: 1.07 pM; IC50, 7TD1 proliferation assay, exp 29.06 (batch 24.06) [1]: 1.46 pM; Rel. Potency, 7TD1, exp 29.06 (batch 24.06) [1]: 0.38
–	–	–	–	–	–	–	–	–	–	–	–	–	–	–	–	–	–	127F1 (germlined variant of 68F2), full-length IgG1 (antibody, V domains shown) VH: EVQLQESGPGLVKPSQTLSLTCTVSGGSITTRYYAWSWIRQPPGKGLEWIGVIDYDGDTYYSPSLKSRVSISWDTSKNQFSLKLSSVTAADTAVYYCARDPDVVTGFHYDYWGQGTLVTVSS VL: QSVLTQPPSVSGTPGQRVTISCAGANNDIGTYAYVSWYQQLPGTAPKLLIYKVTTRASGVPDRFSGSKSGNSASLTITGLQSEDEADYYCASYRNFNNAVFGGGTHLTVL	0.637	0.88	IC50, 7TD1 proliferation assay, exp 7.07 [1]: 1.49 pM; Rel. Potency, 7TD1, exp 7.07 [1]: 0.91
–	–	–	–	–	–	–	–	–	–	–	–	–	–	–	–	–	–	Fab 28C6 (Fab, V domains shown, Fab) VH: QVQLVESGGGLVQPGGSLRLSCAASGFTFSNYYMTWVRQAPGKGLEWVSSIYSFSGDTAYADSVKGRFTISRDNAKNTLYLQMNKLKSEDTAVYYCTRDLGGVVVTANGYDYWGQGTQVTVSS VL: DIVMTQTPSSLSASLGDRVTITCQASQSISTELSWYQQKPGQTPKLLIYGASRLQTGVPARFSGSGSGTSFTLTISGLEAEDLATYYCLQDYSWPYSFGSGTRL	–	–	Ka [2]: 4.04e+07 M⁻¹; Kd [2]: 24800 pM; koff [2]: 0.0025 s⁻¹; kon [2]: 101000 M⁻¹ s⁻¹
2.1e+09	476	11	1.13	9.78	6.88e-05	145000	3.18e+09	315	2.38	0.81	2.92	6.09e-05	193000	2.62e+09	382	1.52	0.8	55E10 (Fab, V domains shown, Periplasmic Fab; Suffix 'g1' not explained; also called 55E10g1) VH: QVQLVESGGGLVQPGGSLRLSCAASGFTFSNYYMTWVRQAPGKGLEWVSSIYSFSGDTAYADSVKGRFTISRDNAKNTLYLQMNSLKSEDTAVYYCTRNLGGVVVTTNGYDYWGQGTQVTVSS VL: DIQMTQSPSSLPTSLGDSVTITCQASQSISDELSWYQQKPGQTPKLLIYGASKLQTGVPSRFSGSGSGTSFTLTISGLEAEDLATYYCLQGYSWPFMFGQGTKVELK	–	–	fold improvement of kd over 28A6 (parental) [4]: 1.88 fold; koff [4]: 5.59e-05 s⁻¹; kon [4]: 146000 M⁻¹ s⁻¹
1.18e+09	845	6.21	0.88	7.11	9.46e-05	112000	2.93e+09	341	2.2	0.87	2.53	7.04e-05	206000	1.56e+09	640	0.91	0.58	48H1 (Fab, V domains shown, Periplasmic Fab; Suffix 'g2, R4' not explained; also called 48H1g2, R4) VH: QVQLVESGGGLVQPGGSLRLSCAASGFTFSNYYMTWVRQAPGKGLEWVSSIYSFSGDTAYADSVKGRFTISRDNAKNTLYLQMNSLKSEDTAVYYCTRNLGGVVVTTNGYDYWGQGTQVTVSS VL: DVVMTQSPSSLPTSLGDSVTITCQASQSISDELSWYQQKPGQTPKLLIYGASKLQTGVPSRFSGSGSGTSFTLTISGLEAEDLATYYCLQGYSWPFMFGQGTKVELK	–	–	fold improvement of kd over 28A6 (parental) [4]: 1.54 fold; koff [4]: 6.8e-05 s⁻¹; kon [4]: 106000 M⁻¹ s⁻¹
1.77e+09	566	9.28	1.13	8.24	8.17e-05	144000	2.78e+09	359	2.09	0.79	2.63	6.76e-05	188000	1.59e+09	631	0.92	0.55	55A11 (Fab, V domains shown, Periplasmic Fab; Suffix 'd' of the label not explained; also called 55A11d) VH: QVQLVESGGGLVQPGGSLRLSCAASGFTFSNYYMTWVRQAPGKGLEWVSSIYSFSGDTAYADSVKGRFTISRDNAKNTLYLQMNSLKSEDTAVYYCTRNLGGVVVTTNGYDYWGQGTQVTVSS VL: DIQMTQSPSSLPTSLGDSVTITCQASQSISDELSWYQQKPGQTPKLLIYGASRLQTGVPSRFSGRGSGTSFTLTISGLEAEDLATYYCLQGYSWPFMFGQGTKVELK	–	–	fold improvement of kd over 28A6 (parental) [4]: 1.65 fold; koff [4]: 6.36e-05 s⁻¹; kon [4]: 101000 M⁻¹ s⁻¹
3.2e+09	313	16.8	2.23	7.56	8.9e-05	285000	3.29e+09	304	2.46	0.96	2.56	6.94e-05	228000	3.1e+09	323	1.8	1.1	55C11 (Fab, V domains shown, Periplasmic Fab; Suffix 'f' not explained; also called 55C11f) VH: QVQLVESGGGLVQPGGSLRLSCAASGFTFSNYYMTWVRQAPGKGLEWVSSIYSFSGDTAYADSVKGRFTISRDNAKNTLYLQMNSLKSEDTAVYYCTRNLGGVVVTTNGYDYWGQGTQVTVSS VL: DIQLTQSPSSLSASLGDSVTITCQASQSISDELSWYQQKPGQTPKLLIYGASKLQTGVPSRFSGSGSGTSFTLTISGLEAEDLATYYCLQGYRWPFMFGQGTKVELK	–	–	fold improvement of kd over 28A6 (parental) [4]: 1.62 fold; koff [4]: 6.47e-05 s⁻¹; kon [4]: 201000 M⁻¹ s⁻¹
–	–	–	–	–	–	–	–	–	–	–	–	–	–	–	–	–	–	Fab 18F8 (Fab, V domains shown, Fab) VH: EVQLVESGGGLVQPGGSLRLSCAASGFTFSRNAMSWVRQAPGKGLEWVSAINSGGGSTSYADSVKGRFTISRDNAKNTLYLQMNSLKPEDTAVYYCAKEGYTGWKDPMYDYWGQGTQVTVSS VL: QSALTQPSALSVTLGQTAKITCQGGSLGSRYAHWYQQKPGQAPVLVIYDDDSRPSGIPERFSGSSSGGRATLTISGAQAEDEGDYYCQSADTSEHIVFGGGTHLTVLG	–	–	Ka [2]: 6.18e+07 M⁻¹; Kd [2]: 16200 pM; koff [2]: 0.000784 s⁻¹; kon [2]: 48400 M⁻¹ s⁻¹
–	–	–	–	–	–	–	–	–	–	–	–	–	–	–	–	–	–	111A7_SDM2_M100A (antibody, V domains shown) VH: EVQLLESGGGLVQPGGSLRLSCAASGFTFSSYAMSWVRQAPGKGPEWVSRISAGGGSTYYGDSVKGRFTISRDNSKNTLYLQMNSLRAEDTAVYYCANRAGWGAGDYWGQGTLVTVSS VL: QTVVTQEPSFSVSPGGTVTLTCGLSSGSVTASNYPGWYQQTPGQAPRALIYSTNDRHSGVPDRFSGSISGNKAALTITGAQAEDEADYYCALDIGDITEFGGGTQLTVL	–	–	IC50, 7TD1 cells [5]: 1.57 pM; Potency relative to 68F2, 7TD1 cells [5]: 0.43
